Reference: paper PMC8026907

T1: CRP-MTB (cAMP receptor protein, wild type) (Mycobacterium tuberculosis, UniProt P9WMH3 1-224)
T1 sequence: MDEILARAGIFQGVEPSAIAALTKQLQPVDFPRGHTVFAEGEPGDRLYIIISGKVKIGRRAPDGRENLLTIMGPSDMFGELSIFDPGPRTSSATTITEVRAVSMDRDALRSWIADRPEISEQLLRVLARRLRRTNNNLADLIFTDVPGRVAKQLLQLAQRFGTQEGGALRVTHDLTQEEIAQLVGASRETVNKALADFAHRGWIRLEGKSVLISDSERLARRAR


Experiments:
Details in all cases: protein: recombinant; tags: His-tag (pET-3a); chain copies: 2; blunt
[1] = target: T1, CRP-MTB (cAMP receptor protein, wild …); experiment: fluorescence anisotropy; 1 mM cAMP
[2] = target: T1, CRP-MTB (cAMP receptor protein, wild …); experiment: fluorescence anisotropy; 0.1 mM cAMP
[3] = target: T1, CRP-MTB (cAMP receptor protein, wild …); experiment: fluorescence anisotropy; no cAMP (apo)

| Binder | Ka [1] | Ka [2] | Ka [3] |
| --- | --- | --- | --- |
| SerC promoter 32-bp, fluorescein (dsDNA) DNA 1: GCGCGTAGTGTGAACAAGCTCACATGCAAGCC DNA 2: GGCTTGCATGTGAGCTTGTTCACACTACGCGC | 4.2 ± 1.7 1e8 M-1 | 4.5 ± 1.2 1e8 M-1 | 2.3 ± 0.9 1e8 M-1 |
| SerC promoter 20-bp, fluorescein (dsDNA) DNA 1: AGTGTGAACAAGCTCACATG DNA 2: CATGTGAGCTTGTTCACACT | 0.5 ± 0.1 1e8 M-1 | – | 0.12 ± 0.02 1e8 M-1 |
